Data published in the nanobody polyreactivity screen of Harvey et al. (2022).

Assay: yeast display, Sf9 membrane polyspecificity reagent, FACS + sequencing; frameworks hold sequencing errors
In short: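 In a synthetic yeast display library (Saccharomyces cerevisiae BJ5465), nanobody expression was induced with galactose for 36–48 hours. FACS gates were set low and high (top ~1%) using anti-HA fluorescence for expression and streptavidin fluorescence for binding of the Sf9 membrane reagent. Each polyreactivity label is drawn from the gate of origin.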

| Sequence | polyreactivity (PSR sort gate) |
| --- | --- |
| QVQLVESGGGLVQAGGSLRLSCAASGRIFWTYAMGWYRQAPGKERELVAAITSGGSTYYADSVKGRVTISRDNAKNTVYLLMNSLKPEDTAVYYCAATSYYYNFMEHDYWGQGTQVTVSS | high polyreactivity |
| QVQLVESGGGLDQAGGSLRLSCAASGSTFDWYTMGWNRQAPGKERELVAAISSGGRTYYADSVKGRFTISRDNAKNTVYLQMNSLKPEDTAVYYCAVAWRVGITKYGYWGQGTQVTVSS | high polyreactivity |
| QVQRVESGGGLVQAGGSLRLSCAASGRIFEYYAMGWSRQAPGKERELVAAINTGGNTYYADSVKGRFTISRDNAKNTVYLQMNSLKPEDTAVYYCATYPIWYGGYLSGTDYDYWGQGTQVTVSS | low polyreactivity |
| QVQLVESGGGLVQAGGSLRLSCAASGYIFKNYAMGWYRQAPGKERELVAAITRRGASTYYADSVKGRFTISRDNAKNTVYLQMNSLKPEDTAVYYCAAYPWPPGEYDYWGQGTQVTVSS | low polyreactivity |
| QVNLVDSGGRLVQAGGSLRLSCAASGRIFYRYAMGWYIQAPGKERELVAAISRRGGSTYYADSVKGRFTISRDNAKNTVYLQMNSLNPEDTAVYYCNVYRSAFSYDSWGQCTQVTVSS | high polyreactivity |
| QVQLVESGGGLVQAGGSLRLSCAASGSIFPSYAMGWYRPAPGTERELVAAISVSGGRTSYADSVKGRFTISRDNAKNTVYLQMNSLKPEDTAVYYCAVRSWSGYGLYNYWAQGTQVTVSS | high polyreactivity |
| QVQLVESGGGLVQAGGSLRLSCAASGRIFYAYAMGWYRQAPGKERVFVAAISKRGGSTYYADSVKGRFTISRDNAKNTVYLQMNSRKPEDTAVYYCAADHEAIVRYDYWGQGTQVTVSS | low polyreactivity |
| QVQLVESGGGLVQAGGSLRLSCAASGRIFEWNAMGWYRQAPGKERELVAAISWSGGSTYYADSVKGRFTISRDNAKNTVYLQMNSLKPEDTAVYYCAALTYRWSARDYWGQGTQVTVSS | high polyreactivity |
| QVQLVESGGGLVQAGGSLRLSCAASGNTFRYYAMGWYRQAPGKERELLAAINSRGGTTSYADSVKGRFTISRDNAKNTVYLQMNSLKPEDTAVYYCNKYIRYPFKRYGYWGQGTQVTVSS | high polyreactivity |
| QVQLVESGGGLVQAGGSLRLSCAASGSIFRVYAMGWYRQAPGKERELVAGITWTGTRTYYADSVKGRFTISRDNAKNTVYLQMNSLKPEDTAVYYCAARYTIRYKRYDYWGQGTQVTVSS | high polyreactivity |
| QVQLVESGGGLVQAGGSLRLSCAASGSIFDPNAMGWYRQAPGKERELVAAITSGGGSTYYADSVKGRFTISRDNAKNTVYLQMNSLNPEDTAVYYCNKVFVLPYKFVAWFDYWGQGTQVTVSS | low polyreactivity |
| QVQLVESGGGLVQAGGSLRLSCAASGSIFTRYTMGWYRQAPGKERELVAVISDSSGRTYYADSVKGRFTISRDNGKNTVYLQMNSLKPEDTAVYYCAAEYSDIYEYWGQGTQVTVSS | low polyreactivity |
| QVQLVESGGGLVQAGGSLRLSCAASGRIFTFYAMGWSRQAPGKERELVAVITTGTSTTYADSVKGRFTISRDNAKNTVYLQMNSLKPEDTAVYYCAVDSWSRVQGWLAHNYDYWGQGTQVTVSS | low polyreactivity |
| QVQLVESGGGLVQAGGSLRLSCAASGRIFDYNAMGWYRQAPGKERELVAAISVSGGSTYYADSVKGRFTISRDNAKNTVYLQMNSLKPEDTAVYYCNAGYILDSFRYDHWGHGTQVTVSS | low polyreactivity |
| QVHLVESGGGLVQAGGSLRLSCDASGRLIARYAMGWHRPAPGKERELVAAISSGGRTYYADSVKGRFTISRDNAKNTVYLQMNSLKPEDTAVYYCAASSGGATRGHDYWGQGTQVTVSS | high polyreactivity |
| QVQLVESGGGLVQAGGSLRLSCAASGITLAYNAMGLYRQAPGTEREFVAAIDVCGGRTYYADSVKGRFTISRDNAKNTVYLQMNSLKPEDTAVYYCAAADIIDHSFPYDYWGQGTQVTVSS | low polyreactivity |
| QVQLVESGGGLVQAGGSLRLSCAASGRTLYLYAMGWYRQEPGKERELVAGITWSGGSTYYADSVKGRFTISRDNAKNTVYLQMNSLKPEDTAVYYCAAVSYPDYDYWGQGTQVTVSS | low polyreactivity |
| QVQLVESGGGLVQAGGSLRLSCAASGRIFSKYAMGWYRQAPGKERELVAAITSGGRTYYADSVKGRFTISRDNAKNTVYLQMNSLIPEDTAVYYCAARYVQVVRKFGYWGQGTQVTVSS | high polyreactivity |
| QVQLVESGGGLVQAGGSLRLSCAASGSIFAYYAMGWYRQAPGKERELVAAITRGGRKYYADSVKGRFTISRDNAKNTVYLQMNILKPEYTAVYYCNARNVYFVSPNYDYWGQCTQVTVSS | high polyreactivity |
| QVQLVESGVGLVQAGGSLRLSCAASGSTFSYYAMGWYRQAPGKERELVAAITRSGGRTYYADSVKGRFTISRDNAKNTVYLQMNSLKPEDTAVYYCAALSVGTRRDYWGQGTQVTVSS | low polyreactivity |
| QVQLVESGGGLVQAGGSLRLSCAPSGRIFRYYAMGWYRPAPGKERELVAAISSRGASTYYADSVKGRYTISRDNAKNTVYLQMNRVKPEDTAVYYCGVRTYVYHWSFSSLPYVYWGQGTQVTVSS | high polyreactivity |
| QVQLVESGGGLVQAGGSLRLSCAASGRTLRHYAMGWYRQAPGKERELVAAISSTGSSTYYADSVKGRFTISRDNAKNTVYLQMNCLKPEDTAVYYCNAGKKYVDYGVLSSRYYWGQGTQVTVSS | low polyreactivity |

| Sequence | polyreactivity (PSR sort gate) |
| --- | --- |
| QVQLVESGVGLVQAGGSLRLSCAASGSTFYAYAMGWNRQAPGKERELVAAISSDGTNYADSVKGRFTISRDNAKNTVYLQMNSLKPDDTAVYYCAADLLLYSSQDNDYWGQGTQVTVSS | low polyreactivity |
| QVQLVESGGGLVQAGGSLRLSCAASGSISYPYDMGWYRQAPGKDRELVAAISGSGGRTYYADSLKGRFTLSRDTAKNTVYLQMNSLKPEVTAVYYCAAERGAYRGVTFTYGYWGQGTQVTVSS | high polyreactivity |
| QVQLVESGGGLVQEGGSLRLSCAASGLTFPYYAMGWYRQAPGKERELVAGISDSGGSTYYADSVKGRFTISRDNAKNTVYVQMNSLKPEDTAVYYCAAQGVDSYYENVYWGQGSQVTVSS | high polyreactivity |
| QVQLVESGGGLVQAGGSLRLSCAASGFTFKYYAMGWYRQAPGKERELVAGISLIDGSTYYADSVKGRFTISRDNAKNTVYLQMNSLKPEDTAVYSCAKDRAPDGHYGSYDYWGQGTQVTVSS | low polyreactivity |
| QDQLVESGGGLVQAGGSLRLSCAASGSIFTDNVMGWYRQATGKERELVAAITSTGGNTYYADSVKGRFTISRDNAKNTVYLQMNSLKREDTAVYYSNKDVARYPYGKFDYWGQGTQVTVSS | low polyreactivity |
| QVQLVESGGGLVQAGGSLRLSCAASGSIFTPNTMGWYRQAPGKEREFVAAINTSGSTNYADSVKGRFTISRDNAKNTVYLQLNSLKPEDTAVYYCAAGIVVTGYDYWGQGTQVTVSS | low polyreactivity |
| QVQLVESGGGLVQAGGSLRLSCAASGSILYRNAMGWYRQAPGKERELVAAITYSGARTYYADSVKGRFTISRDNAKNSVYLQMNSLKPEDTAVYYCAATAAGYWYSAYDYWGQGTQVTVSS | low polyreactivity |
| QVQLVESGGGLVQAGGSLRLSCAASGSIFGANAMGLYRQAPGKERELLATITLRDGSTYYADSVKGRFTISRDNAKNTVYLQRNSLKPEDTAVYYCATYYSAINYGCSKTILYDYWGQGTQVTVSS | low polyreactivity |
| HVQLVESGGGLVQAGGSLRLSCAASGFTFYVYAMGWYRQAPGTERELVAAISRGGSTYYADSVKGRFTISRDNAKNTVYLQMNSLKPEDTAVYYCNRVPSVSSSKVRYSNGFDYWGQGTQVTVSS | low polyreactivity |
| QVQLVESGGGLVQAGGSLRLSCAASGRIFGYYAMGWYRQAPGKEMELVARITWSGGDTYYADSVKGRFTISRDNAKNTVYLQMNSLKPEDTAVYYCAADYLDSTYGYVYGWDDYWGQGTQVTVSS | low polyreactivity |
| QVQLVESGGGLVQAGGSLRLSCAASGFIFYYYAMGWYRQAPGKERELFAAISKSGGSTYYADSVKGRFTISRDHAKNTVYLEMNSLKPEDTAVYYCAGVVTTWPYYGFGYWGQGTQVTVSS | high polyreactivity |
| QVQLVESGGGLVQAGGSLRLSCAASGFIFQRYAMGWYRQAPGKERELVAAISSGGGTNYADSVKGRFTISRDNAKNTVYLQMNSLKPEDTAVYYCARPYYVYSQSSDYWGQGTQVTVSS | low polyreactivity |
| QVQLVESGGGLVQAGGSLRLTCAASGRIFGKYAKGRYRQAAGKEREFVATITRGGGTTSYADSVKGRFTNSRDNAMNTVYLQMNSLKPVDTAVYYCATRYFRGSYRNGDYWGQGTQVTVSS | high polyreactivity |
| QVQLVESGGGLVQAGGSLRLSCAPSGYIFYDNAMGWYRQAPGKEREFVAAITFSGDSTDYADSVKGRFTISRDNAKNTVYLQMNSLKPEDTAVYYFNTVYYRYYIELYFSSYDYWGQGTQVTVSS | high polyreactivity |
| QVQLVESGGGLVQAGGSLRLSCAASGSTFHIYAMGWYRQAPGKERELVAGITRGSTYYADSVKGRFTISRDNAKNTVYLQMNSLKPEDTAVYYCAADVYGFRYSESDYWGQGTQVTVSS | low polyreactivity |
| QVQLVESGGGLVQAGGSLRISCAASGRIFDNYAMGWNRQAPGKERELVAAISVSGDSTYYADSVKGRFTISRDNAKNTVYLQMNSLKPEDTAVYYCAVDPDSYWYLTWADEMYYWGQGTQVTVSS | high polyreactivity |
| QVQLVESGGGLVQAGGSLRLSCAASGSYAKGWYRQAPGKERELVAYINGRDGSTYYADSVKGRFTISRDNAKNTVYLQMNSLIPEDTAVYYCNADYVLQYNYWGQGTQVTVSS | low polyreactivity |
| QVQLVESGGGLVQAGGSLRLSCAASGITFSRNTMGWYRQGPGKERELVAAITYSGGRTYYADSVKGRFTISRDNAKNTVYLQMNSLKPEDTAVYYCARRGTGKYPYYQHYYWGQGTQVTVSS | high polyreactivity |
| QVQLVESGGGLVQAGGSLRLSCAASGRTFGLYAMRWYRQAPGKERELVAAISIRGGATYYAVSVKGRFTISRDNAKNTVYLQMNSLKPEDSAVYYCNKGPGRWYYWGQVTQVTVSS | low polyreactivity |
| QVQLVESGGGLVQAGGSLRLSCAASGFIFRYYAMGWYRQAPGKERELVAAISSGGRTSYADSVKGRFTISRDNAKNTVYLQMNSLKPEDTAVYYCAADRWRGLFYYGKDYWGQGTQVTVSS | high polyreactivity |
| QVQLVESGGGLVQAGGSLRLSCAASGSIFYSYAMGWYRQAPGKEREFVAAISWSASRTYYADSVKGRFTISRDNAKNTVYLQMNSLKPADTAVYDCAARTYYNRGYYYWGQGTQVTVSS | high polyreactivity |
